Source: article PMC2925307

Molecular target: β subunit of Roseobacter denitrificans propionyl-coenzyme A carboxylase (Roseobacter denitrificans)
Assay: crystal structure

β subunit of Roseobacter denitrificans propionyl-coenzyme A carboxylase
stoichiometry N: 6
